Assay results: the supplement of paper PMC6757056
± gives the standard deviation of the averaged measurements.

B1: library; a variant is named by its letters at N, in order (parent)
chain: GCUGUCACCGGUGUAUUACCCUAGUGGUCGACCGGUCUGAUGAGUCUNNNNNNAGACGAAACAGC

How the values were obtained:
hypoxanthine [1] = variants of: B1; assay: normalized RNA/DNA level with ligand (relative to sTRSVctl = 100) (log10 (% of sTRSVctl)); ligand: hypoxanthine (xanthine aptamer); higher = less ribozyme self-cleavage, higher mRNA level; conditions: ligand concentration (+) RNA-Seq: 5 mM, HEK293T, reporter: mCherry (pCS4076), ligand present: yes
Procedure, shortened: (§1)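 Total RNA, extracted with EDTA 72 h after HEK293T cells were transfected with 4 µg per 6-well well of reporter-linked ribozyme switch library plasmids, was reverse-transcribed, amplified, barcoded and sequenced. Ligand, if used, was added 1 h before transfection. RNA level was derived from RNA reads divided by DNA reads and normalized to a spiked-in non-cleaving sequence or to the top sequences. This was multiplied by 100 and log10-transformed, with the top set of 25 sequences and a ≥100 DNA read minimum.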

hypoxanthine [2] = variants of: B1; assay: normalized RNA/DNA level without ligand (relative to sTRSVctl = 100) (log10 (% of sTRSVctl)); ligand: hypoxanthine (xanthine aptamer); higher = less ribozyme self-cleavage, higher mRNA level; conditions: HEK293T, reporter: mCherry (pCS4076), ligand present: no
Procedure, shortened: as §1

Row | Variant | normalized RNA/DNA level with ligand (log10) (hypoxanthine [1]) | normalized RNA/DNA level without ligand (log10) (hypoxanthine [2])
1 | GCUGUCACCGGUGUAUUACCCUAGUGGUCGACCGGUCUGAUGAGUCUCAAUCGAGACGAAACAGC | 1.98 ± 0.083 | 1.89 ± 0.019
2 | GCUGUCACCGGUGUAUUACCCUAGUGGUCGACCGGUCUGAUGAGUCUUAAUCCAGACGAAACAGC | 1.917 ± 0.015 | 1.84 ± 0.041
3 | GCUGUCACCGGUGUAUUACCCUAGUGGUCGACCGGUCUGAUGAGUCUUAAUCAAGACGAAACAGC | 1.955 ± 0.019 | 1.886 ± 0.0084
4 | GCUGUCACCGGUGUAUUACCCUAGUGGUCGACCGGUCUGAUGAGUCUGACAAUAGACGAAACAGC | 1.897 ± 0.017 | 1.815 ± 0.013
5 | GCUGUCACCGGUGUAUUACCCUAGUGGUCGACCGGUCUGAUGAGUCUGACAAGAGACGAAACAGC | 1.83 ± 0.043 | 1.36 ± 0.018
6 | GCUGUCACCGGUGUAUUACCCUAGUGGUCGACCGGUCUGAUGAGUCUGACAACAGACGAAACAGC | 1.93 ± 0.072 | 1.73 ± 0.021
7 | GCUGUCACCGGUGUAUUACCCUAGUGGUCGACCGGUCUGAUGAGUCUCAAUGCAGACGAAACAGC | 1.95 ± 0.047 | 1.89 ± 0.029
8 | GCUGUCACCGGUGUAUUACCCUAGUGGUCGACCGGUCUGAUGAGUCUCAAUGAAGACGAAACAGC | 1.92 ± 0.038 | 1.82 ± 0.051
9 | GCUGUCACCGGUGUAUUACCCUAGUGGUCGACCGGUCUGAUGAGUCUUACACGAGACGAAACAGC | 1.87 ± 0.035 | 1.63 ± 0.02
10 | GCUGUCACCGGUGUAUUACCCUAGUGGUCGACCGGUCUGAUGAGUCUUACACAAGACGAAACAGC | 1.899 ± 0.0042 | 1.859 ± 0.012
11 | GCUGUCACCGGUGUAUUACCCUAGUGGUCGACCGGUCUGAUGAGUCUUACACCAGACGAAACAGC | 1.961 ± 0.0059 | 1.9 ± 0.027
12 | GCUGUCACCGGUGUAUUACCCUAGUGGUCGACCGGUCUGAUGAGUCUUACAAAAGACGAAACAGC | 1.88 ± 0.063 | 1.755 ± 0.0034
13 | GCUGUCACCGGUGUAUUACCCUAGUGGUCGACCGGUCUGAUGAGUCUUACAACAGACGAAACAGC | 1.97 ± 0.035 | 1.82 ± 0.081
14 | GCUGUCACCGGUGUAUUACCCUAGUGGUCGACCGGUCUGAUGAGUCUAACAGCAGACGAAACAGC | 1.94 ± 0.036 | 1.83 ± 0.05
15 | GCUGUCACCGGUGUAUUACCCUAGUGGUCGACCGGUCUGAUGAGUCUGACACAAGACGAAACAGC | 1.934 ± 0.012 | 1.8467 ± 2.7e-05
16 | GCUGUCACCGGUGUAUUACCCUAGUGGUCGACCGGUCUGAUGAGUCUGACACUAGACGAAACAGC | 1.912 ± 0.0036 | 1.905 ± 0.008
17 | GCUGUCACCGGUGUAUUACCCUAGUGGUCGACCGGUCUGAUGAGUCUCACACCAGACGAAACAGC | 1.99 ± 0.035 | 1.929 ± 0.0057
18 | GCUGUCACCGGUGUAUUACCCUAGUGGUCGACCGGUCUGAUGAGUCUCACACGAGACGAAACAGC | 1.96 ± 0.032 | 1.861 ± 0.017
19 | GCUGUCACCGGUGUAUUACCCUAGUGGUCGACCGGUCUGAUGAGUCUCACACAAGACGAAACAGC | 1.9 ± 0.036 | 1.78 ± 0.037
20 | GCUGUCACCGGUGUAUUACCCUAGUGGUCGACCGGUCUGAUGAGUCUAACAACAGACGAAACAGC | 1.899 ± 0.015 | 1.8557 ± 0.001
21 | GCUGUCACCGGUGUAUUACCCUAGUGGUCGACCGGUCUGAUGAGUCUAACAAAAGACGAAACAGC | 1.91 ± 0.035 | 1.785 ± 0.017
